This is an account of results in the RNAGym collection of RNA variant scans (doi:10.7554/elife.80360).

B1: CPEB3 Ribozyme (parent)
chain: GGGGGCCACAGCAGAAGCGUUCACGUCGCGGCCCCUGUCAGAUUCUGGUGAAUCUGCGAAUUCUGCUGU

In this data set the parent is B1. Description: self-cleavage, relative activity (ratio to wild type); higher = more cleavage; co-transcriptional.
As to GGGGGCCAAAGCAGAAGCGUUCACGUCGCGGCCACUGUCAGAUUCUGGUGAAUCUGCGAAUUCUGCUGU, the self-cleavage stood at 1.01.

For GGGGGCCAAAGCAGAAGCGUUCACGUCGCGGCCUCUGUCAGAUUCUGGUGAAUCUGCGAAUUCUGCUGU, the self-cleavage was determined as 1.04. As for GGGGGCCAAAGCAGAAGCGUUCACGUCGCGGCCCCUGUCAGCUUCUGGUGAAUCUGCGAAUUCUGCUGU, the self-cleavage worked out at 0.999. The same measure for GGGGGCCAAAGCAGAAGCGUUCACGUCGCGGCCCCUGUCAGAUUCUGGUGAAUAUGCGAAUUCUGCUGU: 1; for GGGGGCCAAAGCAGAAGCGUUCACGUCGCGGCCCCUGUCAGAUUCUGGUGAAUGUGCGAAUUCUGCUGU: 1.01; for GGGGGCCAAAGCAGAAGCGUUCACGUCGCGGCCCCUGUCAGAUUCUGGUGAAUUUGCGAAUUCUGCUGU: 1.03. Turning to GGGGGCCAAAGCAGAAGCGUUCACGUCGCGGCUCCUGUCAGAUUCUGGUGAAUCUGCGAAUUCUGCUGU, the self-cleavage stood at 1.03. On to GGGGGCCAAAGCAGAAGCGUUCACGUCGCGGCGCCUGUCAGAUUCUGGUGAAUCUGCGAAUUCUGCUGU, for which the self-cleavage was 0.962.

As to GGGGGCCAAAGCAGAAGCGUUCACGUCGCGGCACCUGUCAGAUUCUGGUGAAUCUGCGAAUUCUGCUGU, the self-cleavage came to 0.993. The result for GGGGGCCUCAGCAGAAGCGUUCACGUCGCGGCCCCUGUCAGAUUCGGGUGAAUCUGCGAAUUCUGCUGU reads 1.01. Take GGGGGCCUCAGCAGAAGCGUUCACGUCGCGGCCCCUGUCAGAUUCAGGUGAAUCUGCGAAUUCUGCUGU: the self-cleavage was 1.

GGGGGCCUCAGCAGAAGCGUUCACGUCGCGGCCCCUGUCAGAUUCCGGUGAAUCUGCGAAUUCUGCUGU: the self-cleavage came out at 0.998. The result for GGGGGCCAAAGCAGAAGCGUUCACGUCGGGGCCCCUGUCAGAUUCUGGUGAAUCUGCGAAUUCUGCUGU reads 0.854; that for GGGGGCCAAAGCAGAAGCGUUCACGUCGCGGCCCCUGUCUGAUUCUGGUGAAUCUGCGAAUUCUGCUGU, 0.969.

For GGGGGCCAAAGCAGAAGCGUUCACGUCGCGGCCCCUGUCCGAUUCUGGUGAAUCUGCGAAUUCUGCUGU, the self-cleavage stood at 0.71. The result for GGGGGCCAAAGCACAAGCGUUCACGUCGCGGCCCCUGUCAGAUUCUGGUGAAUCUGCGAAUUCUGCUGU reads 0.513. The same measure for GGGGGCCAAAGCAGAAGCGUUCACGUCGCGGCCCCUGUCAGAUUCUGGUGUAUCUGCGAAUUCUGCUGU: 1.04; for GGGGGCCAAAGCAGAAGCGUUCACGUCGCGGCCCCUGUCAGAUUCUGGUGGAUCUGCGAAUUCUGCUGU: 1.03; for GGGGGCCAAAGCAGAAGCGUUCACGUCGCGGCCCCUGUCAGAUUCUGGUGCAUCUGCGAAUUCUGCUGU: 1.03. GGGGGCCUCAGCAGAAGCGUUCACGUCGCGGCCCCUGUCAGAUUCUGGUGAAUCUGCGAAUUCUGCGGU: the self-cleavage was 1.03. Regarding GGGGGCCUCAGCAGAAGCGUUCACGUCGCGGCCCCUGUCAGAUCCUGGUGAAUCUGCGAAUUCUGCUGU, the self-cleavage worked out at 0.933. The result for GGGGGCCUCAGCAGAAGCGUUCACGUCGCGGCCCCUGUCAGAUGCUGGUGAAUCUGCGAAUUCUGCUGU reads 0.932; that for GGGGGCCAAAGCAGAAGAGUUCACGUCGCGGCCCCUGUCAGAUUCUGGUGAAUCUGCGAAUUCUGCUGU, 0.188; that for GGGGGCCAAAGCAGAAGUGUUCACGUCGCGGCCCCUGUCAGAUUCUGGUGAAUCUGCGAAUUCUGCUGU, 0.919. GGGGGCCAAAGCAGAAGCGUUCACGUCGCGGCCCUUGUCAGAUUCUGGUGAAUCUGCGAAUUCUGCUGU: the self-cleavage was found to be 1.03. The result for GGGGGCCAAAGCAGAAGCGUUCACGUCGCGGCCCAUGUCAGAUUCUGGUGAAUCUGCGAAUUCUGCUGU reads 0.423. For the variant GGGGGCCAAAGCAGAAGCGUUCACGUCGCGGCCCGUGUCAGAUUCUGGUGAAUCUGCGAAUUCUGCUGU, the self-cleavage was 0.72.

As for GGGGGCCAAAGUAGAAGCGUUCACGUCGCGGCCCCUGUCAGAUUCUGGUGAAUCUGCGAAUUCUGCUGU, the self-cleavage turned out to be 1.02. GGGGGCCAAAGGAGAAGCGUUCACGUCGCGGCCCCUGUCAGAUUCUGGUGAAUCUGCGAAUUCUGCUGU: the self-cleavage worked out at 0.936. With GGGGGCCAAAGCAGAAGCGUUCACGUCGCGGCCCCUGUCAGAUUCUGGUGAAUCUGCGGAUUCUGCUGU, the self-cleavage came to 1.03.

Turning to GGGGGCCAAAGCAGAAGCGUUCACGUCGCGGCCCCUGUCAGAUUCUGGUGAAUCUGCGCAUUCUGCUGU, the self-cleavage came out at 0.854.

With GGGGGCCUCAGCAGAAGCGUUCACGUCGCGGCCCCCGUCAGAUUCUGGUGAAUCUGCGAAUUCUGCUGU, the self-cleavage worked out at 0.887. In the case of GGGGGCCUCAGCAGAAGCGUUCACGUCGCGGCCCCAGUCAGAUUCUGGUGAAUCUGCGAAUUCUGCUGU, the self-cleavage came out at 0.229.

Consider GGGGGCCAAAGCAGAAGCGUUCACGUCGCGGCCCCUGUAAGAUUCUGGUGAAUCUGCGAAUUCUGCUGU, for which the self-cleavage worked out at 0.942.

On to GGGGGCCAAAGCAGAAGCGUUCACGUCGCGGCCCCUGUGAGAUUCUGGUGAAUCUGCGAAUUCUGCUGU, for which the self-cleavage worked out at 1.

As to GGGGGCCUCAGCAGAAGCGUUCACGUCGCGGCCCCUGUCAGACUCUGGUGAAUCUGCGAAUUCUGCUGU, the self-cleavage came to 0.951.

Take GGGGGCCUCAGCAGAAGCGUUCACGUCGCGGCCCCUGUCAGAAUCUGGUGAAUCUGCGAAUUCUGCUGU: the self-cleavage is 0.899.

Consider GGGGGCCAAAGCAGAAGCGUUCACGUUGCGGCCCCUGUCAGAUUCUGGUGAAUCUGCGAAUUCUGCUGU, for which the self-cleavage was 0.695. Consider GGGGGCCAAAGCAGAAGCGUUCACGUGGCGGCCCCUGUCAGAUUCUGGUGAAUCUGCGAAUUCUGCUGU, for which the self-cleavage is 0.256.
